Experimental data as given in patent publication US20260152729A1, “NOVEL NKR VARIANTS FOR INCREASED PRODUCTION OF ISOBUTANOL” (Gevo, Inc., priority 2020, published 2026).

Columns and labels:
[1] = KARI enzyme KM assay with NADH, purified enzymes; type: biochemical, Slackia exigua; conditions: for Vmax: 0.1 mg/mL of enzyme
Method: (§1) In this example, three different KARI Gen6 variant enzymes (v1, v48, and v65) and parent enzyme Se1_NKR_gen 6 were screened for their activity with NADH as cofactor. The enzymes were expressed E. coli, and resulting transformants were cultivated in shake flask fermentations as described below and samples were taken after 44h, centrifuged at 4000×g for 10 mins at 4° C. and the cell pellets were stored at −80° C. until analysis. The pellets were lysed by bead beating and the lysates were analyzed by KARI activity assay as described below using NADH and NADPH as cofactors.
(§2) KARI Enzyme Assay: The assay and no substrate control reactions were performed in triplicate for each sample. For the KM assay, the reaction samples comprised 100 mM potassium phosphate, pH 6.8 or 7, 10 mM MgCl2, 1 mM DTT, 200 μM NADH, 0-10 mM 2-acetolactate, and 0.1 mg/mL of enzyme. For the Ki assay, the reaction samples comprised 100 mM potassium phosphate, pH 6.8 or 7, 10 mM MgCl2, 1 mM DTT, 200 μM NADH, 1 mM 2-acetolactate, 0-40 mM R-DHIV, and 0.1 mg/mL of enzyme. For the no substrate controls, the 2-acetolactate was substituted with water. 10 μL of each lysate were transferred into a 96 well half area assay plate. The reaction was started with 90 μL of reaction buffer to each well using a multichannel pipette. The samples were mixed immediately. The samples were read at 340 nm every 10 seconds for 5 minutes.
(§3) The purified enzymes encoded by Se1_NKR_Gen6 (Se1), Se1_NKR_v1 (v1), Se1_NKR_v48 (v48), and Se1_NKR_v65 (v65) under two conditions: 33° C. at pH 6.8 and 30° C. at pH 7 were characterized.

[2] = KARI enzyme Ki assay (product inhibition) with NADH, purified enzymes; type: biochemical, Slackia exigua; conditions: for catalytic efficiency using KM apparent = KM*(1+[product]/Ki), compared to Se1_NKR: 1 mM DHIV; for IC50 / Ki: 1 mM 2-acetolactate, 0-40 mM R-DHIV; for catalytic efficiency (KM apparent) versus increasing concentrations of DHIV (FIG. 14A-B): both conditions (33° C., pH 6.8 and 30° C., pH 7.0)
Method: as §1, §2, §3
In order to determine the impact of all three parameters (kcat, KM, and Ki) to more closely determine the impact of the new variants in vivo, the catalytic efficiency for each enzyme using the KM apparent, which is equal to KM*(1+[product]/Ki), was calculated. […] At this DHIV concentration level, in vivo, at 33° C., pH 6.8, m48 would be 157%, Se1_NKR_v1 would be 139%, and Se1_NKR_v65 would be 118% improved compared to Se1_NKR. For example, in vivo, cells expressing Se1_NKR-v48, it would be expected that 16 fewer copies of the enzyme could potentially achieve 36% less protein while achieving 0.35 g/g yeast efficiency.

[3] = system: Isobutanol Production; assay: Simple shake flask fermentation, final relative isobutanol concentration; type: cell-based; conditions: enzyme on vector; for Isobutanol Concentration relative to Se1_NKR control (WT): final concentration
Text: This improvement in isobutanol production is expected to increase with multiple copies of the Se1_NKR_v1 variant enzyme incorporated into the host cell genome.

[4] = system: isobutanol producing yeast strains; assay: Genome scale metabolic modeling (iMM904) of isobutanol yield, batch simulation; design: species or system S. cerevisiae; conditions: cells with 16 fewer copies of the enzyme, 36% less protein
Method: The iMM904 metabolic reconstruction of S. cerevisiae metabolism served as the basis of the model. The model consists of a matrix of stoichiometric coefficients that represent metabolic and transport reactions encoded by 904 genes. Reactions were added as new columns to the matrix while new rows were added for additional metabolites. The native pathway for making isobutanol in the yeast mitochondria was turned off. A summary of these changes is found in Table 2 below. With these changes made, the maximum isobutanol yield from glucose in the model was approximately 0.38 g/g. If the model was altered to not produce glycerol, the yield increased to 0.41 g/g.
With more reactions than metabolites, metabolic networks have a near infinite number of solutions for any given condition. In flux balance analysis, the flux distribution is obtained by finding the solution that maximizes an objective function. […] Each flux is bounded by known limits of each reaction, though the bounds are mostly set by thermodynamic reversibility. […]
While all other reactions in the isobutanol pathway were set by reversibility only, the upper bound of flux through NKR (vnkr) was set by the kinetics of Se1 and Se2 NKR. Flux was calculated by the following equation: […]
The benefits of improving either NKR enzyme in a strain with an equal number of both was calculated to predict which enzyme was best to engineer. […]

[5] = Kinetic parameters of Se1_NKR and Se2_NKR for acetolactate, as set in the model; type: biochemical; conditions: parameter set in the model
Text: (§4) Where nNKR is the number of copies of NKR integrated into the yeast genome, kcatis the first order rate constant, AL is the cytosolic concentration of acetolactate, Km is the Michaelis constant for acetolactate, DHIV is the concentration of DHIV, and KiDHIV is the inhibition constant for DHIV. […] This also assumes that all copies of NKR are expressed equally regardless of promotor or where it is integrated in the genome.

[6] = DHIV inhibition constant of Se1_NKR and Se2_NKR, as set in the model; type: biochemical; conditions: parameter set in the model; read-out: KiDHIV
Text: as §4

[7] = generally, under the two conditions

Row | Molecule | Kcat ([1]; 30° C., pH 7) [s⁻¹] | Km ([1]; 30° C., pH 7) [µM] | Vmax ([1]; 30° C., pH 7) [mM/s] | Kcat ([1]; 33° C., pH 6.8) [s⁻¹] | Km ([1]; 33° C., pH 6.8) [µM] | Vmax ([1]; 33° C., pH 6.8) [mM/s] | catalytic efficiency using KM apparent = KM*(1+[product]/Ki), compared to Se1_NKR ([2]; 33° C., pH 6.8) [%] | IC50 ([2]; 30° C., pH 7) [µM] | Ki ([2]; 30° C., pH 7) [µM] | IC50 ([2]; 33° C., pH 6.8) [µM] | Ki ([2]; 33° C., pH 6.8) [µM] | catalytic efficiency (KM apparent) versus increasing concentrations of DHIV (FIG. 14A-B) [2] | Isobutanol Concentration relative to Se1_NKR control (WT) [3] [%] | other results
1 | V1: Se1_NKR Gen6 variant with mutations M77I, V91I, K290A, Q330N as printed in Table 5; e.g. SEQ ID NO: 90 (protein, listed as Slackia exigua, SITE 1..350 Se1_NKR_v1 protein) MSVKTKEKEMAVTILYEQDVDPKVIQGLKVGIIGYGSQGHAHALNLMDSGVDVRVGLREGDSDWKTAEEAGLKVTDIDTAAEEADVIMVLIPDEVQPKVYQEHIAAHLKAGNTLAFAHGFNIHYGYIVPPEDVNVIMCAPKGPGHIVRRQFTEGSGVPDLACVQQDATGNAWDIVLSYCWGVGGARSGIIKATFAEETEEDLFGEQAVLCGGLVELVKAGFETLTEAGYPPELAYFECYHEMKMIVDLMYESGIHFMNYSISNTAEYGEYYAGPKVINEQSREAMKEILARIQDGSFAQEFVDDCNNGHKRLLEQREAINTHPIETTGARIRSMFSWIKKEDLEHHHHHH | 555 | 566 | 1.63 | 491 | 407 | 1.45 | 139 | 2300 | 832 | 2880 | 834 | decreasing catalytic efficiencies | 105 | KM for acetolactate, comparison of the variants [1, 7]: best (lowest); isobutanol concentration compared with the WT enzyme, in words [3]: significantly more isobutanol than the WT enzyme
2 | V48: Se1_NKR Gen6 variant with mutations G31A, M77I, Q330N as printed in Table 5; e.g. SEQ ID NO: 92 (protein, listed as Slackia exigua, SITE 1..350 Se1_NKR_v48 protein) MSVKTKEKEMAVTILYEQDVDPKVIQGLKVAIIGYGSQGHAHALNLMDSGVDVRVGLREGDSDWKTAEEAGLKVTDIDTAAEEADVIMVLVPDEVQPKVYQEHIAAHLKAGNTLAFAHGFNIHYGYIVPPEDVNVIMCAPKGPGHIVRRQFTEGSGVPDLACVQQDATGNAWDIVLSYCWGVGGARSGIIKATFAEETEEDLFGEQAVLCGGLVELVKAGFETLTEAGYPPELAYFECYHEMKMIVDLMYESGIHFMNYSISNTAEYGEYYAGPKVINEQSREAMKEILKRIQDGSFAQEFVDDCNNGHKRLLEQREAINTHPIETTGARIRSMFSWIKKEDLEHHHHHH | 717 | 683 | 2.11 | 647 | 533 | 1.90 | 157 | 2450 | 996 | 3030 | 1050 | highest catalytic efficiencies | 104 | expected yield (printed: yeast efficiency) [4]: 0.35 g/g; rate (kcat or VMAX), comparison of the variants [1, 7]: best (highest); Ki for DHIV, comparison of the variants [2, 7]: best (highest)
3 | V65: Se1_NKR Gen6 variant with mutations G31A, V91I, Q330N as printed in Table 5; e.g. SEQ ID NO: 94 (protein, listed as Slackia exigua, SITE 1..350 Se1_NKR_v65 protein) MSVKTKEKEMAVTILYEQDVDPKVIQGLKVAIIGYGSQGHAHALNLMDSGVDVRVGLREGDSDWKTAEEAGLKVTDMDTAAEEADVIMVLIPDEVQPKVYQEHIAAHLKAGNTLAFAHGFNIHYGYIVPPEDVNVIMCAPKGPGHIVRRQFTEGSGVPDLACVQQDATGNAWDIVLSYCWGVGGARSGIIKATFAEETEEDLFGEQAVLCGGLVELVKAGFETLTEAGYPPELAYFECYHEMKMIVDLMYESGIHFMNYSISNTAEYGEYYAGPKVINEQSREAMKEILKRIQDGSFAQEFVDDCNNGHKRLLEQREAINTHPIETTGARIRSMFSWIKKEDLEHHHHHH | 602 | 673 | 1.77 | 538 | 510 | 1.58 | 118 | 2040 | 821 | 2370 | 801 | decreasing catalytic efficiencies | 103 | 
4 | Se1_NKR: NADH-dependent ketol-acid reductoisomerase from Slackia exigua (S. exigua KARI, SEQ ID NO: 2); parent enzyme of the variants (protein, listed as Slackia exigua) MSVKTKEKEMAVTILYEQDVDPKVIQGLKVGIIGYGSQGHAHALNLMDSGVDVRVGLREGSSSWKTAEEAGLKVTDMDTAAEEADVIMVLVPDEIQPKVYQEHIAAHLKAGNTLAFAHGFNIHYGYIVPPEDVNVIMCAPKGPGHIVRRQFTEGSGVPDLACVQQDATGNAWDIVLSYCWGVGGARSGIIKATFAEETEEDLFGEQAVLCGGLVELVKAGFETLTEAGYPPELAYFECYHEMKMIVDLMYESGIHFMNYSISNTAEYGEYYAGPKVINEQSREAMKEILKRIQDGSFAQEFVDDCNNGHKRLLEQREAINTHPIETTGAQIRSMFSWIKKED | 442 | 711 | 1.30 | 382 | 419 | 1.12 |  | 1810 | 752 | 2600 | 768 |  | 100 | Kcat [5]: 2.6 s⁻¹; Km [5]: 430 µM; Ki [6]: 1100 µM
